According to patent US20130158238A1 (THERACLONE SCIENCES, published 2013):
Where two headings read alike, the source gives them in different places.

T1: A.Hong Kong.1144.99.H3N2
T1 M2: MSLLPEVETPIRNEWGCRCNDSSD

T2: A.Hong Kong.1180.99 H3N2
T2 M2: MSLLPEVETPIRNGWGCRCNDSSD

T3: A.Caracas.1.71.H3N2
T3 M2: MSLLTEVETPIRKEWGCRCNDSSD

T4: A.Hong Kong.1.68.H3N2
T4 M2: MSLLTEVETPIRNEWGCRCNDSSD

T5: A.X-31 Vaccine strain H3N2
T5 M2: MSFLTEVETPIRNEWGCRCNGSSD


Tests used:
[1] = biological target: M2e peptide … (23mer synthetic peptide of M2 derived from A/Fort Worth/1/50) (Influenza A virus A/Fort Worth/1/50 (H1N1)); assay: ELISA, peptide coated at 1 µg/ml
[2] = biological target: M2e peptide … (23mer synthetic peptide of M2 derived from A/Fort Worth/1/50) (Influenza A virus A/Fort Worth/1/50 (H1N1)); assay: ELISA, peptide 2 µg/mL, mAb 5 µg/mL
[3] = biological target: M2e; assay: ELISA, peptide 2 µg/mL, mAb 5 µg/mL
[4] = biological target: M2 protein of A/Puerto Rico/8/34 (H1N1), on cells (Influenza A virus A/Puerto Rico/8/34 (H1N1)) (UniProt P06821); assay: flow cytometry on MDCK cells infected with A/Puerto Rico/8/34
[5] = biological target: M15; assay: ELISA, peptide 2 µg/mL, mAb 5 µg/mL
[6] = biological target: M16; assay: ELISA, peptide 2 µg/mL, mAb 5 µg/mL
[7] = biological target: M2e peptide … (23mer synthetic peptide of M2 derived from A/Fort Worth/1/50) (Influenza A virus A/Fort Worth/1/50 (H1N1)); assay: ELISA, peptide 2 µg/mL, mAb 5 µg/mL; remark: listed apart in the source
[8] = biological target: NM15; assay: ELISA, peptide 2 µg/mL, mAb 5 µg/mL
[9] = biological target: NM17; assay: ELISA, peptide 2 µg/mL, mAb 5 µg/mL
[10] = biological target: T1, A.Hong Kong.1144.99.H3N2; assay: FACS, transfected HEK293 [D00006 FIG. 3C-1]
[11] = biological target: T2, A.Hong Kong.1180.99 H3N2; assay: FACS, transfected HEK293 [D00006 FIG. 3C-1]
[12] = biological target: T3, A.Caracas.1.71.H3N2; assay: FACS, transfected HEK293, mAb 1 µg/ml [D00006 FIG. 3C-1]
[13] = biological target: T4, A.Hong Kong.1.68.H3N2; assay: as above
[14] = biological target: T5, A.X-31 Vaccine strain H3N2; assay: as above

Molecule	EC50 [1]	binding activity (ELISA A450) [2]	binding activity (ELISA A450) [3]	EC50 (read off the curve) [4]	binding activity (ELISA A450) [5]	binding activity (ELISA A450) [6]	binding activity (ELISA A450) [7]	binding activity (ELISA A450) [8]	binding activity (ELISA A450) [9]	binding result [10]	binding result [11]	binding result [12]	binding result [13]	binding result [14]
14C2 (chimeric mouse V-region/human IgG1 kappa 14C2 antibody)	0.01 µg/mL	3.85	3.98	0.3 µg/mL										
23K12 (antibody, V domains shown) VH: EVQLVESGGGLVQPGGSLRISCAASGFTVSSNYMSWVRQAPGKGLEWVSVIYSGGSTYYADSVKGRFSFSRDNSKNTVFLQMNSLRAEDTAVYYCARCLSRMRGYGLDVWGQGTTVTVS VL: DIQMTQSPSSLSASVGDRVTITCRTSQSISSYLNWYQQKPGKAPKLLIYAASSLQSGVPSRFSGSGSGTDFTLTISGLQPEDFATYYCQQSYSMPAFGQGTKLEIK					0.21	0.21	0.22	0.3	0.58	no binding (tested: 1 µg/ml)	no binding (tested: 1 µg/ml)	binds	binds	binds
8i10 (antibody, V domains shown) VH: QVQLQESGPGLVKPSETLSLTCTVSGSSISNYYWSWIRQSPGKGLEWIGFIYYGGNTKYNPSLKSRVTISQDTSKSQVSLTMSSVTAAESAVYFCARASCSGGYCILDYWGQGTLVTVS VL: DIQMTQSPSSLSASVGDRVTITCRASQNIYKYLNWYQQRPGKAPKGLISAASGLQSGVPSRFSGSGSGTDFTLTITSLQPEDFATYYCQQSYSPPLTFGGGTRVEIK												binds		binds
